Laboratory results reported in patent publication US20110179505A1, “RODENT CANCER MODEL FOR HUMAN FGFR4 ARG388 POLYMORPHISM” (priority 2008, published 2011).
Entries after “also recorded” stand apart in the source; their conditions may differ. One block for each molecule: values may come before it.

Experiments:
[1] = target: T1, mouse FGFR4 Arg385 (knock-in allele) (mouse, UniProt Q03142 17-799); assay: in vivo SILAC LC-MS/MS of FGFR4 immunoprecipitates from liver, FGFR4 Arg385 mouse with the labelled SILAC mouse as internal standard
T1 construct: Endogenous FGFR4 of FGFR4 Arg385 KI mice (liver lysates) and of MEFs derived from them
T1 sequence (Q03142 17-799 G385R/E673G limits assumed): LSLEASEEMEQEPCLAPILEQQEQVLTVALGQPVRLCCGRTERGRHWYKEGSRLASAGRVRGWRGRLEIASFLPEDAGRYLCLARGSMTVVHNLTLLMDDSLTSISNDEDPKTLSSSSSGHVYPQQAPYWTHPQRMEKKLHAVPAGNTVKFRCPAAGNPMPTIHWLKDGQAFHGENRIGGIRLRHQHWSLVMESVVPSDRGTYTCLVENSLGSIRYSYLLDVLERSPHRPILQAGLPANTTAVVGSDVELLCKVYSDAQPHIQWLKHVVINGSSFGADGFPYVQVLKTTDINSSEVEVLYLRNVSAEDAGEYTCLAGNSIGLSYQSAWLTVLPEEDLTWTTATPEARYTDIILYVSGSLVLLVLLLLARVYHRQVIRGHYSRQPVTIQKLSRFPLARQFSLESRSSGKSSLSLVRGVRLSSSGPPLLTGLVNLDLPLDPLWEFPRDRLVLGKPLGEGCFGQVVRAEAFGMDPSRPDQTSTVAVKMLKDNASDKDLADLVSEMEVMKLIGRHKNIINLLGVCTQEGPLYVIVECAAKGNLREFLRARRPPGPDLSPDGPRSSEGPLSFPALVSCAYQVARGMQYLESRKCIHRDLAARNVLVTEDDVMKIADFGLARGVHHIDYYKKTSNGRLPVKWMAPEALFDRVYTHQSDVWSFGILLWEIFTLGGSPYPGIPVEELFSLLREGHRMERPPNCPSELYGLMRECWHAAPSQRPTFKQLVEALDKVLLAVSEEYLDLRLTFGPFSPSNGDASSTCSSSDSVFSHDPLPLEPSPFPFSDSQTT

[2] = target: T2, mouse wild-type FGFR4 (FGFR4 Gly385) (mouse, UniProt Q03142 17-799); assay: in vivo SILAC LC-MS/MS of FGFR4 immunoprecipitates from liver, FGFR4 Gly385 mouse with the labelled SILAC mouse as internal standard
T2 construct: Endogenous hepatic FGFR4, immunoprecipitated from mouse liver lysates; also called hepatic FGFR4
T2 sequence (Q03142 17-799 E673G limits assumed): as the sequence (Q03142 17-799 G385R/E673G limits assumed) above, with R369G counted along it

[3] = target: T1, mouse FGFR4 Arg385 (knock-in allele); assay: in vivo SILAC LC-MS/MS of FGFR4 immunoprecipitates from liver; FGFR4 Arg385 against the reference FGFR4 Gly385
[4] = target: T2, mouse wild-type FGFR4 (FGFR4 Gly385); assay: in vivo SILAC LC-MS/MS of FGFR4 immunoprecipitates from liver, labelled SILAC mouse against FGFR4 KO mouse
Experimental: The hepatic FGFR4 of the unlabelled mouse was immunoprecipitated in the presence of the blocking peptides to detect unspecific binding partners. […] Unspecific interaction partners should display a 1:1 ratio compared to the unlabelled fraction incubated with the blocking peptides. […] For that reason, the investigation of hepatic FGFR4 interaction partners was done with the liver of FGFR4 KO mice (Yu et al., 2000).
Here, significance (PEP<0.03), amount of razor peptides (RPs, >1) and an upregulation of at least 3 fold in FGFR4 KO experiments identified potential FGFR4 interaction partner.

FGFR4 Arg/Arg385 MEFs = assay: Apoptosis assay in MEFs (propidium-iodide, FACS) after chemotherapeutic drugs; format: cell-based, mouse
Experimental: Transmigration of MEFs were analysed in Boyden Chambers (Schubert & Weiss, Germany). 1.5×10^4 cells were seeded in starving medium containing 0% FCS. Migration was performed to DMEM containing 4% FCS for 16 h. Afterwards cells were stained with crystal violet and migrated cells were analysed macroscopically. To perform an apoptosis assay 1.5×10^4cells in DMEM containing 10% FCS were seeded in 12-well plates. After 24 h cells were treated with 0.5 μM doxorubicin for 48 h. Afterwards cells were stained with propidium-iodide and apoptotic cells were determined in a FACS (FACScalibus, BD) analysis as previously described (27).
To support these observations by molecular analytical methods we determined whether the FGFR4 Arg385 allele is hyperactivated in MEFs and thereby enhances cell transformation. The expression of the different FGFR4 isoforms is equal in MEFs as well as its basic state of phosphorylation (FIG. 9A). Next, we wanted to check if FGFR4 Arg385 facilitates cell survival or influences physiological processes of MEFs. Therefore we analysed the number of population doublings until the cells enter senescence in vitro and additionally stained MEFs, subcultured for 30 days, for […] to visualize senescent cells. However, we found no obvious differences between the different FGFR4 alleles (FIG. 9B). […] Further we wanted to investigate the influence of the FGFR4 Arg385 allele on physiological processes. As a motility enhancing effect of is the FGFR4 Arg388 allele had already been shown by Bange and colleagues with a human mammary carcinoma cell line, we wanted to confirm this observation in MEFs, but as shown in FIG. 9C no difference observed when Gly/Gly—were compared to Arg/Arg-MEFs. Contrarily, Arg-carrying MEFs seemed to strongly support cell survival in response to DNA-damaging agents. […] Additionally, we investigated the anti-apoptotic impact of the FGFR4 Arg385 after treatment with other chemotherapeutic drugs.

[5] = target: Epidermal Growth Factor Receptor (EGFR, SEQ ID NO: 77) (Homo sapiens (Human)) (UniProt P00533); assay: cell-based or functional assay
[6] = test system: MDA-MB-231 cells expressing the FGFR4 Arg388 allele; format: cell-based, human; settings: FIG. 20C
[7] = test system: MDA-MB-231 cells expressing the empty pLXSN vector; assay: MTT-proliferation assay with Gefitinib; format: cell-based, human; settings: up to 20 μM of Gefitinib
[8] = test system: FGFR4 Arg388 expressing MDA-MB-231 cells; assay: Apoptosis in response to Gefitinib treatment; format: cell-based, human; settings: Gefitinib 20 μM (p=0.012) and 10 μM (p=0.0022); 96 hours
Experimental: In a preferred embodiment, the proliferation rate is determined via a MTT proliferation assay, the apoptosis is determined via FACS analysis (Nicoletti et al., 1991, J. Immunol. Methods, 139: 271-279), and/or the migration is determined with a Boyden Chamber Assay, e.g. as described in the Examples below.
To further analyze the physiological connection between the EGFR and the FGFR4 we investigated the differences between the different FGFR4 alleles in MDA-MB-231 overexpressing cells upon exposure to Gefitinib. […]. Therefore, physiological processes that require the dimerization of the EGFR and the FGFR4 should lead to different results in the presence of Gefitinib compared to those obtained without an EGFR inhibitor. […]. Therefore, we investigated the impact of FGFR4 Arg388 overexpression on apoptosis in response to Gefitinib treatment in MDA-MB-231 cells. […]; 10 μM-p=0.0022). […].

[9] = test system: MDA-MB-231 cells expressing FGFR4 Gly388; format: cell-based, human; settings: up to 20 μM of Gefitinib
[10] = test system: MDA-MB-231 cells overexpressing the FGFR4 Arg388 allele; format: cell-based, human; settings: FGFR4 Arg388 expressing cells; Gefitinib 0.025-20 μM
[11] = target: human FGFR4 Gly388 (pLXSN-FGFR4 Gly388, overexpressed in MDA-MB-231 cells) (human) (UniProt P22455); assay: SILAC LC-MS/MS of FGFR4 immunoprecipitates, MDA-MB-231 cells overexpressing FGFR4 Gly388, normalized to empty pLXSN control cells
[12] = target: human FGFR4 Arg388 (pLXSN-FGFR4 Arg388, overexpressed in MDA-MB-231 cells) (human) (UniProt P22455); assay: SILAC LC-MS/MS of FGFR4 immunoprecipitates, MDA-MB-231 cells overexpressing FGFR4 Arg388, normalized to empty pLXSN control cells
human FGFR4 Arg388 (pLXSN-FGFR4 Arg388, overexpressed in MDA-MB-231 cells) (human), sequence (P22455 22-802 G388R): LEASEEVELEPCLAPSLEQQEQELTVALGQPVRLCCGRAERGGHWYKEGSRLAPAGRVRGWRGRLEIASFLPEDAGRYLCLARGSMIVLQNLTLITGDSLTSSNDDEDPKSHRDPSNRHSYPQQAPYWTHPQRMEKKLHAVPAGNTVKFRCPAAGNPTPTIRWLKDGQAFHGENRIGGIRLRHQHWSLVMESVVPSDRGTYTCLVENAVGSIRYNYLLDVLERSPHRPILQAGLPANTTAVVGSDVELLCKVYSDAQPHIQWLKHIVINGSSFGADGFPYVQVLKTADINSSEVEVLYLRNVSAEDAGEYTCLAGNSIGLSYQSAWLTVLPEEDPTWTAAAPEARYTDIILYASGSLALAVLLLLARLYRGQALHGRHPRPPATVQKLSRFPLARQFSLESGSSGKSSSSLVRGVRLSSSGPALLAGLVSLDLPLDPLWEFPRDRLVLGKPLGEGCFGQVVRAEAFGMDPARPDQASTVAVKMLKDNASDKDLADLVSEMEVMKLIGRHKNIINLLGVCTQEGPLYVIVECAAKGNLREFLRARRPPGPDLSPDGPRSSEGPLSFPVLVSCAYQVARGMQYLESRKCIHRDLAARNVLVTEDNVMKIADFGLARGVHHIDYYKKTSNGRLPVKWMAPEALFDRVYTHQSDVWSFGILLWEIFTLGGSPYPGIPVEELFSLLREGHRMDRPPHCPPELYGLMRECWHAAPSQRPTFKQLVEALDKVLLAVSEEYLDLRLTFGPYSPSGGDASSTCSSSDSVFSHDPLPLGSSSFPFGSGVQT

[13] = target: human FGFR4 Arg388 (pLXSN-FGFR4 Arg388, overexpressed in MDA-MB-231 cells) (human) (UniProt P22455); assay: SILAC LC-MS/MS of FGFR4 immunoprecipitates, MDA-MB-231 cells; FGFR4 Arg388 against the reference FGFR4 Gly388

ratio FGFR4 Arg385 (n = 2) [1]: 1
ratio FGFR4 Gly385 (n = 1) [2]: 0.4
ratio FGFR4 Arg385/Gly385 [3]: 2.7
ratio FGFR4 KO (n = 2) [4]: 3.5 fold
Molecule: Formimidoyltransferase-cyclodeaminase (from UniProt Q91XD4 1-541) (enzyme)

Molecule: N.N.[Cl][Pt][Cl] [cisplatin]
apoptotic cells in Arg385 carrying MEFs compared to Gly/Gly385 MEFs (FGFR4 Arg/Arg385 MEFs; 3 μM cisplatin, 48 hrs, p=0.03): decreased apoptosis; also recorded: reduced number of apoptotic cells

IC50 of Gefitinib, MTT-proliferation assay of MDA-MB-231 cells expressing FGFR4 Gly388 (same value for empty pLXSN) [5]: 18.7 µM
inhibition of migration by Gefitinib (2.5 µM), Boyden Chamber Assay, 15 hours, against DMSO treated control cells [5]: 6.28%
Molecule: human FGFR4 Gly388 (pLXSN-FGFR4 Gly388, overexpressed in MDA-MB-231 cells) (from UniProt P22455 22-802) (receptor)

Molecule: COc1cc2ncnc(Nc3ccc(F)c(Cl)c3)c2cc1OCCCN1CCOCC1 [Gefitinib]
migration in FGFR4 Arg388 cells compared to FGFR4 Gly388 cells in response to Gefitinib [6]: decrease in migration
response in MTT-proliferation assay [7]: no response
apoptotic response in FGFR4 Arg388 cells compared to FGFR4 Gly388 cells [8]: significantly increased apoptotic response; also recorded: significant increase in apoptosis
response in MTT-proliferation assay [9]: no response
response in MTT-proliferation assay [10]: typical dose response curve

ratio FGFR4Gly388 (n = 2) [11]: 16.6 fold
ratio FGFR4Arg388 (n = 2) [12]: 14.3 fold
ratio FGFR4Arg388/Gly388 (n = 2) [13]: 1.06 fold
Molecule: Protein tyrosine phosphatase, receptor type, F (from UniProt P10586 30-1907)

Molecule: COc1cccc2c1C(=O)c1c(O)c3c(c(O)c1C2=O)C[C@@](O)(C(=O)CO)C[C@@H]3O[C@H]1C[C@H](N)[C@H](O)[C@H](C)O1 [doxorubicin]
apoptotic cells in Arg/Arg385 MEFs compared to Gly/Gly385 MEFs (FGFR4 Arg/Arg385 MEFs; 0.5 μM doxorubicin, 48 h, p=0.03): decreased percentage of apoptotic cells; also recorded: reduced number of apoptotic cells

Molecule: CC(=O)O[C@H]1C(=O)[C@@]2(C)[C@H]([C@H](OC(=O)c3ccccc3)[C@]3(O)C[C@H](OC(=O)[C@H](O)[C@@H](NC(=O)c4ccccc4)c4ccccc4)C(C)=C1C3(C)C)[C@]1(OC(C)=O)CO[C@@H]1C[C@@H]2O [taxol]
apoptotic response in Gly/Gly385 MEFs compared to Arg/Arg385 MEFs (FGFR4 Arg/Arg385 MEFs; taxol, 48 hrs): no differences in apoptotic response

ratio FGFR4 Arg385 (n = 2) [1]: 1.6
ratio FGFR4 Gly385 (n = 1) [2]: 0.1
ratio FGFR4 Arg385/Gly385 [3]: 27.8
ratio FGFR4 KO (n = 2) [4]: 19.7 fold
Molecule: Hydroxyacid oxidase 1 (from UniProt Q9WU19 1-370) (enzyme)

ratio FGFR4 Arg385 (n = 2) [1]: 1.3
ratio FGFR4 Gly385 (n = 1) [2]: 0.3
ratio FGFR4 Arg385/Gly385 [3]: 3.8
ratio FGFR4 KO (n = 2) [4]: 5.8 fold
Molecule: Epidermal growth factor receptor (mouse liver, Egfr) (from UniProt Q01279 25-1210)

ratio FGFR4 Arg385 (n = 2) [1]: 1.8
ratio FGFR4 Gly385 (n = 1) [2]: 1.8
ratio FGFR4 Arg385/Gly385 [3]: 1
ratio FGFR4 KO (n = 2) [4]: 3.3 fold
Molecule: Hydroxymethylglutaryl-CoA synthase (from UniProt P54869 38-508) (enzyme)

ratio FGFR4 Arg385 (n = 2) [1]: 3.6
ratio FGFR4 Gly385 (n = 1) [2]: 0.2
ratio FGFR4 Arg385/Gly385 [3]: 18.6
ratio FGFR4 KO (n = 2) [4]: 7.8 fold
Molecule: Propanoyl-CoA C-acyltransferase (from UniProt P32020 1-547) (enzyme)

IC50 of Gefitinib, MTT-proliferation assay of MDA-MB-231 cells overexpressing the FGFR4 Arg388 allele [5]: 9.53 µM
inhibition of migration by Gefitinib (2.5 µM), Boyden Chamber Assay, 15 hours, against DMSO treated control cells [5]: 22.3%
Molecule: human FGFR4 Arg388 (pLXSN-FGFR4 Arg388, overexpressed in MDA-MB-231 cells) (from UniProt P22455 22-802) (receptor)

ratio FGFR4Gly388 (n = 2) [11]: 7.97 fold
ratio FGFR4Arg388 (n = 2) [12]: 8.74 fold
ratio FGFR4Arg388/Gly388 (n = 2) [13]: 1.05 fold
Molecule: Ephrin type-A receptor 2 (from UniProt P29317 24-976)

ratio FGFR4 Arg385 (n = 2) [1]: 2.4 ratio
ratio FGFR4 Gly385 (n = 1) [2]: 3.2 ratio
ratio FGFR4 Arg385/Gly385 [3]: 0.7 ratio
ratio FGFR4 KO (n = 2) [4]: 28.2 fold
B1: Beta-klotho (receptor, mouse, UniProt Q99N32 1-1043, looked up)
chain: MKTGCAAGSPGNEWIFFSSDERNTRSRKTMSNRALQRSAVLSAFVLLRAVTGFSGDGKAIWDKKQYVSPVNPSQLFLYDTFPKNFSWGVGTGAFQVEGSWKTDGRGPSIWDRYVYSHLRGVNGTDRSTDSYIFLEKDLLALDFLGVSFYQFSISWPRLFPNGTVAAVNAQGLRYYRALLDSLVLRNIEPIVTLYHWDLPLTLQEEYGGWKNATMIDLFNDYATYCFQTFGDRVKYWITIHNPYLVAWHGFGTGMHAPGEKGNLTAVYTVGHNLIKAHSKVWHNYDKNFRPHQKGWLSITLGSHWIEPNRTDNMEDVINCQHSMSSVLGWFANPIHGDGDYPEFMKTGAMIPEFSEAEKEEVRGTADFFAFSFGPNNFRPSNTVVKMGQNVSLNLRQVLNWIKLEYDDPQILISENGWFTDSYIKTEDTTAIYMMKNFLNQVLQAIKFDEIRVFGYTAWTLLDGFEWQDAYTTRRGLFYVDFNSEQKERKPKSSAHYYKQIIQDNGFPLKESTPDMKGRFPCDFSWGVTESVLKPEFTVSSPQFTDPHLYVWNVTGNRLLYRVEGVRLKTRPSQCTDYVSIKKRVEMLAKMKVTHYQFALDWTSILPTGNLSKVNRQVLRYYRCVVSEGLKLGVFPMVTLYHPTHSHLGLPLPLLSSGGWLNMNTAKAFQDYAELCFRELGDLVKLWITINEPNRLSDMYNRTSNDTYRAAHNLMIAHAQVWHLYDRQYRPVQHGAVSLSLHCDWAEPANPFVDSHWKAAERFLQFEIAWFADPLFKTGDYPSVMKEYIASKNQRGLSSSVLPRFTAKESRLVKGTVDFYALNHFTTRFVIHKQLNTNRSVADRDVQFLQDITRLSSPSRLAVTPWGVRKLLAWIRRNYRDRDIYITANGIDDLALEDDQIRKYYLEKYVQEALKAYLIDKVKIKGYYAFKLTEEKSKPRFGFFTSDFRAKSSVQFYSKLISSSGLPAENRSPACGQPAEDTDCTICSFLVEKKPLIFFGCCFISTLAVLLSITVFHHQKRRKFQKARNLQNIPLKKGHSRVFS
notes: Endogenous protein co-immunoprecipitated with hepatic FGFR4; also called βKlotho
